Laboratory results published in article PMC12830800.

Target: Coxsackievirus A6 (CVA6) strain 54203/HeB/CHN/2012 mature virion (coxsackievirus A6 strain 54203/HeB/CHN/2012)

B1: His-tagged human KRM1 ectodomain (residues A23-G373) (domain or fragment)
chain: APSPGLGPECFTANGADYRGTQNWTALQGGKPCLFWNETFQHPYNTLKYPNGEGGLGEHNYCRNPDGDVSPWCYVAEHEDGVYWKYCEIPACQMPGNLGCYKDHGNPPPLTGTSKTSNKLTIQTCISFCRSQRFKFAGMESGYACFCGNNPDYWKYGEAASTECNSVCFGDHTQPCGGDGRIILFDTLVGACGGNYSAMSSVVYSPDFPDTYATGRVCYWTIRVPGASHIHFSFPLFDIRDSADMVELLDGYTHRVLARFHGRSRPPLSFNVSLDFVILYFFSDRINQAQGFAVLYQAVKEELPQERPAVNQTVAEVITEQANLSVSAARSSKVLYVITTSPSHPPQTVPG
share of A-particles among the particles after incubation of virions with KRM1 ectodomain (1:120, 35 min, room temperature; cryo-EM classification); none in the untreated sample: 69.8%
